Where two headings read alike, the source gives them in different places. Starred links: 1 amine or outer side, 2 acyl side, 3 side chain; linkers in the order of their positions; H or OH if unused. Non-standard residues stand in square brackets, D forms with d. Groups on a side chain read outwards from the residue. γGlu = O=C(O)[C@H](CCC(=O)[*:2])N[*:1]; C(:O)(CH2)nR3 = not defined here; Aib = CC(C)(N)C(=O)O
T1: Human calcitonin receptor (human, UniProt P30988)
T1 sequence: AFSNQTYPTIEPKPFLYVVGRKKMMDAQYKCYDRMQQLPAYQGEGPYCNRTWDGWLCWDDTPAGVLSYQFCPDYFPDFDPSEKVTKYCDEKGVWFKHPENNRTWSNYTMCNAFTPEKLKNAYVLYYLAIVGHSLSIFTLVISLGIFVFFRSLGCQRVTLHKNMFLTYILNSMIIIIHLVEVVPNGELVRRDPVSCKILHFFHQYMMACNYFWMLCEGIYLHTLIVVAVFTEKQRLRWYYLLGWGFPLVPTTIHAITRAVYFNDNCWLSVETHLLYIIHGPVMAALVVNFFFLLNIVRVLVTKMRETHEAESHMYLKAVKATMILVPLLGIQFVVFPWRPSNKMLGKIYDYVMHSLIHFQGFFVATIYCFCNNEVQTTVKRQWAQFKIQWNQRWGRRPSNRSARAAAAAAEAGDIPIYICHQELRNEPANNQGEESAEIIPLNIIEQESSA

T2: Human AMY3 receptor (CT/RAMP3) (human, UniProt P30988)
T2 sequence 1: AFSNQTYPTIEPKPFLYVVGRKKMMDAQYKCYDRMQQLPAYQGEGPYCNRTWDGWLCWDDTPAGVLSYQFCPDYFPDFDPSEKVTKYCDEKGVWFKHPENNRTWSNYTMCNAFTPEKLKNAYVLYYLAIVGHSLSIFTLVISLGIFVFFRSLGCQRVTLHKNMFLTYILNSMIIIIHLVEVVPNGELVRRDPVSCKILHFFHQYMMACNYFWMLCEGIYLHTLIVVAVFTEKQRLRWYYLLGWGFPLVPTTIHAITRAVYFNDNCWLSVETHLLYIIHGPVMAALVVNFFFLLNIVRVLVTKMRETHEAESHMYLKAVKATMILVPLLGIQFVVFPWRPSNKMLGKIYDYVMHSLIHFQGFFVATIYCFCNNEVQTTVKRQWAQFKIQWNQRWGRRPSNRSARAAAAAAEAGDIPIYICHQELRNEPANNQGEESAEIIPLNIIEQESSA
T2 sequence 2: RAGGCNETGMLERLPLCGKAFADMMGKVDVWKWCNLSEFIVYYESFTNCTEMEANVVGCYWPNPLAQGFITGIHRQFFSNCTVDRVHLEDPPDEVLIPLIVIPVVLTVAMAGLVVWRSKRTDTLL

T3: Human GIP receptor (human, UniProt P48546)
T3 sequence: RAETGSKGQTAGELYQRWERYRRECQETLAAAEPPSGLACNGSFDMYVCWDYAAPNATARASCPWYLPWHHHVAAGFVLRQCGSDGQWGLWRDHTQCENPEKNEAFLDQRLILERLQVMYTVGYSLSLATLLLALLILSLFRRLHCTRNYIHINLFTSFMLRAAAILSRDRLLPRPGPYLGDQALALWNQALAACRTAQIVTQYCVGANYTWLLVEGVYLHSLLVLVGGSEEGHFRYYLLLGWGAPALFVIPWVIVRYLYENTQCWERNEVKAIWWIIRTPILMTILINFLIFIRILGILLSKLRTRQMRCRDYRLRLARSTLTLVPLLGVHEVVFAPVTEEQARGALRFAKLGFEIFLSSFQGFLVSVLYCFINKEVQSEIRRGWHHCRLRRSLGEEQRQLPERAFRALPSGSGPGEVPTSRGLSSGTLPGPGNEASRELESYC


Tests used:
[1] = cited from earlier work
[2] = target: Human GLP-1 receptor (human) (UniProt P43220)
[3] = in vivo; cited from earlier work
[4] = target: T1, Human calcitonin receptor; assay: cell-based or functional assay
[5] = target: T2, Human AMY3 receptor (CT/RAMP3); assay: cell-based or functional assay
[6] = target: T3, Human GIP receptor; assay: cell-based or functional assay
[7] = target: Human GLP-1 receptor (human, UniProt P43220); assay: cell-based or functional assay
[8] = Acute food intake in lean mice after single s.c. administration; format: in vivo, C57BL/6j male mice; details: 50 nmoles/kg single s.c., time period not given, mean±SEM
Description: (§1) Differences were considered statistically significant at p<0.05. Data analysis was carried out with GraphPad software (GraphPad Prism).

[9] = Blood glucose after single s.c. administration in non-fasted mice; format: in vivo; details: 50 nmoles/Kg single s.c., mean±SEM
Description: as §1

[10] = Acute food intake in lean rats after single s.c. administration; format: in vivo, Sprague Dawley male rats; details: 50 nmoles/kg single s.c., mean +/- SEM
Description: (§2) Sprague Dawley male rats (5 weeks of age) were purchased from Charles River (Spain) and single housed for individual registration of food consumption. […] Rats were fed ad libitum a standard rodent chow diet (CHD) (A04, U8220G10R, SAFE).
(§3) For all experimental groups, food was replaced immediately after lights were turned off.
(§4) Food intake was measured at different time-intervals post-injection up to 72 h using a precision balance. Cumulative food intake was calculated for the indicated time-periods. Body weight was measured at the indicated time-periods. Mean accumulated food intake in each dose group was compared to vehicle and reported as a percentage of mean food intake in the vehicle group, which was defined as 100%.
(§5) All data shown are the mean ± standard error (SEM).

[11] = Body weight in lean rats after single s.c. administration; format: in vivo, Sprague Dawley male rats; details: mean±SEM
Description: as §2, §3, §4, §5

Chain of Exendin-4 (P26349 48-86 limits assumed): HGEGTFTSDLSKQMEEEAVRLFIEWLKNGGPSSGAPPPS

Molecule	EC50 (nM), cAMP cell-based agonist assay [4] [nM]	EC50 (nM), cAMP cell-based agonist assay [5] [nM]	EC50 (nM), cAMP cell-based agonist assay [6] [nM]	EC50 (nM), cAMP cell-based agonist assay [7] [nM]	further results
CC[C@H](C)[C@H](NC(=O)[C@H](CO)NC(=O)[C@H](Cc1ccc(O)cc1)NC(=O)[C@H](CC(=O)O)NC(=O)[C@H](CO)NC(=O)[C@@H](NC(=O)[C@H](Cc1ccccc1)NC(=O)[C@@H](NC(=O)CNC(=O)[C@H](CCC(=O)O)NC(=O)[C@H](C)NC(=O)[C@@H](N)Cc1ccc(O)cc1)[C@@H](C)O)[C@@H](C)CC)C(=O)N[C@@H](C)C(=O)N[C@@H](CCSC)C(=O)N[C@@H](CC(=O)O)C(=O)N[C@@H](CCCCN)C(=O)N[C@H](C(=O)N[C@@H](Cc1c[nH]cn1)C(=O)N[C@@H](CCC(N)=O)C(=O)N[C@@H](CCC(N)=O)C(=O)N[C@@H](CC(=O)O)C(=O)N[C@@H](Cc1ccccc1)C(=O)N[C@H](C(=O)N[C@@H](CC(N)=O)C(=O)N[C@@H](Cc1c[nH]c2ccccc12)C(=O)N[C@@H](CC(C)C)C(=O)N[C@@H](CC(C)C)C(=O)N[C@@H](C)C(=O)N[C@@H](CCC(N)=O)C(=O)N[C@@H](CCCCN)C(=O)NCC(=O)N[C@@H](CCCCN)C(=O)N[C@@H](CCCCN)C(=O)N[C@@H](CC(N)=O)C(=O)N[C@@H](CC(=O)O)C(=O)N[C@@H](Cc1c[nH]c2ccccc12)C(=O)N[C@@H](CCCCN)C(=O)N[C@@H](Cc1c[nH]cn1)C(=O)N[C@@H](CC(N)=O)C(=O)N[C@H](C(=O)N[C@H](C(=O)N[C@@H](CCC(N)=O)C(=O)O)[C@@H](C)O)[C@@H](C)CC)C(C)C)[C@@H](C)CC [GIP, glucose-dependent insulinotropic polypeptide]					half-life of intact GIP ([1]; diabetic subjects): ~5.2 min; half-life of intact GIP ([1]; healthy subjects): approximately 7.3 minutes
Exendin-4 (from UniProt P26349) (ligand)					EC50 (nM), cAMP cell-based agonist assay [2]: 0.007 nM
glucagon-like peptide-1 [GLP-1]					metabolic clearance rate of active GLP-1 [3]: 12 to 13 min
Peptide No. 17 (reading uncertain; also: K* n and R3 not given here, acetate salt) peptide: [dY]AEGTFTSDYSIALDKIAQQAFVQWLLAGGPSCNTATCVLGRLSQELHRLQTYPRTNTGK([γGlu-γGlu-C(:O)(CH2)nR3])NTY-NH2	0.1	1.3	0.81	5.7	
(d)YAEGTFTSDYSIALDKIAQQAFVQWLLAGGPSCNTATCVLGRLSQELHRLQTYPRTNTGK*-N-T-Y-NH2 (not fully specified (residue 60); also: acyl end R3 and chain length n (12-20) not fixed, K* indicates a linking group, e.g. Lys-γGlu-γGlu—C(═O)(CH2)nR3) [dY]AEGTFTSDYSIALDKIAQQAFVQWLLAGGPSCNTATCVLGRLSQELHRLQTYPRTNTGKNTY-NH2					Cumulative Food Intake Reduction Relative to Vehicle (%) ([8]; 1st of 4 value columns): 20.5±0.86%; Cumulative Food Intake Reduction Relative to Vehicle (%) ([8]; 2nd of 4 value columns): 25.3±1.93%; Cumulative Food Intake Reduction Relative to Vehicle (%) ([8]; 3rd of 4 value columns): 12.2±4.03%; Cumulative Food Intake Reduction Relative to Vehicle (%) ([8]; 4th of 4 value columns): 2.6±5.68%; Blood glucose 30 min ([9]; 30 min after injection): 140.4 ± 8.41 mg/dL; Blood glucose 120 min ([9]; 120 min after injection): 138.4 ± 1.63 mg/dL; Blood glucose Time 0 ([9]; time 0 (baseline)): 159.6 ± 5.78 mg/dL; Cumulative Food Intake Reduction vs. Vehicle (%) 12 hr. ([10]; cumulative to 12 hr.): 21.8 +/- 2.62%; Cumulative Food Intake Reduction vs. Vehicle (%) 24 hr. ([10]; cumulative to 24 hr.): 31.8 +/- 2.10%; Cumulative Food Intake Reduction vs. Vehicle (%) 48 hr. ([10]; cumulative to 48 hr.): 32.3 +/- 1.66%; Cumulative Food Intake Reduction vs. Vehicle (%) 72 hr. ([10]; cumulative to 72 hr.): 28.7 +/- 1.69%; Food Intake Reduction by Intervals vs. Vehicle (%) 0-12 hr. ([10]; interval 0-12 hr.): 21.8 +/- 2.62%; Food Intake Reduction by Intervals vs. Vehicle (%) 12-24 hr. ([10]; interval 12-24 hr.): 89.1 +/- 3.69%; Food Intake Reduction by Intervals vs. Vehicle (%) 24-48 hr. ([10]; interval 24-48 hr.): 32.8 +/- 3.69%; Food Intake Reduction by Intervals vs. Vehicle (%) 48-72 hr. ([10]; interval 48-72 hr.): 19.4 +/- 2.31%; Body Weight Reduction (G) 24 h ([11]; 24 h): -9.0 ± 1.01 g; Body Weight Reduction (G) 48 h ([11]; 48 h): -13.0 ± 0.84 g; Body Weight Reduction (G) 72 h ([11]; 72 h): -14.8 ± 1.30 g
Peptide No. 19 (reading uncertain; also: K* n and R3 not given here, acetate salt) peptide: [dY]AEGTFTSDYSIQLDKIAQQAFVQWLLAGGPSCNTATCVLGRLSQELHRLQTYPRTNTGK([γGlu-γGlu-C(:O)(CH2)nR3])NTY-NH2	0.1	1.03	4.6	8.23	
Peptide No. 10 (reading uncertain; also: K* acyl n and R3 not given here, acetate salt, printed as Y-Aib-E-G-T-F-T-S-D-Y-S-I-Aib-L-D-K-I-A-Q-K*-AFVQWLLAGGPSCNTATCATQRLANFLVHSSNNFGPILPPTNVGSNTY-NH2) peptide: Y[Aib]EGTFTSDYSI[Aib]LDKIAQK([γGlu-γGlu-C(:O)(CH2)nR3])AFVQWLLAGGPSCNTATCATQRLANFLVHSSNNFGPILPPTNVGSNTY-NH2	12.4	7	0.05	3.87	
Peptide No. 21 (reading uncertain; also: K* n and R3 not given here, acetate salt) peptide: [dY]AEGTFTSDYSIQLDKIAQQAFVQWLLAGSGCNTATCVLGRLSQELHRLQTYPRTNTGK([γGlu-γGlu-C(:O)(CH2)nR3])NTY-NH2	0.11	1.6	20	43	
Peptide No. 15 (reading uncertain; also: K* n and R3 not given here, acetate salt) peptide: Y[dA]EGTFTSDYSIALDKIAQQAFVQWLLAGGPSCNTATCVLGRLSQELHRLQTYPRTNTGK([γGlu-γGlu-C(:O)(CH2)nR3])NTY-NH2	0.071	1.1	0.13	5.2	
Peptide No. 22 (reading uncertain; also: K* n and R3 not given here, acetate salt) peptide: [dY]AEGTFTSDYSIQLDKIAQQAFVQWLLAGSGCNTATCATQRLANFLVHSSNNFGPILPPTNVGK([γGlu-γGlu-C(:O)(CH2)nR3])NTY-NH2	5.78	15	16	42	

Reference: patent US20230203100A1, “COMPOSITIONS INCLUDING MULTI-AGONIST PEPTIDES AND METHODS OF MANUFACTURE AND USE” (Pep2Tango Therapeutics Inc., priority 2021, published 2023)
